Experimental data: patent publication EP2265632B1 (Elevation Biotech (Pty) Ltd., dated 2009)

Target: recombinant HIV-1BaL gp120 (HIV-1 BaL)
Test: SPR (Biacore 3000), gp120BaL immobilised on CM5 chip, peptide as analyte

B1: 12p1 (RINNIPWSEAMM), 12-mer peptide (peptide)
peptide: H-RINNIPWSEAMM-NH2
notes: Quality control peptide of the SPR assay
With B1 the Kd was 1020 nM.
